Four molecules from article PMC9170159 (Proceedings of the National Academy of Sciences of the …, 2022) can be followed below.

The target of assay [1] is T1, SARS-CoV-2 (Wuhan-Hu-1) spike receptor-binding domain, His-tagged (SARS-CoV-2, UniProt P0DTC2 319-541). Nature of the assay: BLI. The conditions noted are these: both partners purified.
Assay [2] addresses T1, SARS-CoV-2 (Wuhan-Hu-1) spike …. Nature of the assay: BLI. The conditions noted are these: both partners purified. This is another data set of the same source.

Where “and” joins values, the source holds several entries; their conditions need not be identical. Equal values may be shown once.

B1: NCI-CoV-7A3 VHH-hFc fusion protein (Fc fusion)
VHH: QVQLVESGGGSVQPGGSLRLSCVVSGYTSSSRYMGWFRQVPGKGLEWVSGIKRDGTNTYYADSVKGRFTISQDNAKNTVYLQMNSLKPEDTAMYYCAAGSWYNQWGYSMDYWGKGTQVTVSS
notes: also called 7A3 VHH-Fc; source: Expi293 cells, transfected, purified (protein A column)
For orientation: Kd means the concentration at which binding is half-saturated. Higher therefore signals a looser complex. As to B1, the Kd is 0.2 nM in assay [1]; 0.19 nM and 0.2 nM in assay [2].

B2: 1H6 VHH-hFc fusion protein (Fc fusion)
VHH: AVQLVDSGGGSVQAGGSLNLSCVASGTTLRNGCMAWFRQVPGKEREVVAIIIRATSYTDYADSVKGRFTISQDNAKNTVYLQMKSLTPEDTATYYCAATLYRVNCAKREFDKWGQGTQVTVSS
notes: also called 1H6 VHH-Fc; source: Expi293 cells, transfected, purified (protein A column)
For B2, the Kd in assay [2] is 37 nM and 42 nM.

B3: 8A4 VHH-hFc fusion protein (Fc fusion)
VHH: EVQLVESGGGLVQPGESLRLSCEASGFTFSSVYMSWVRQAPGKGLEWISTIHPAGGSTYYADSMKDRFTISRDNAKNTLYLQMNSLKSEDTALYYCIIEALSGYRGPGTQVTVSS
notes: also called 8A4 VHH-Fc; source: Expi293 cells, transfected, purified (protein A column)
Consider B3, for which the Kd in assay [1] is 0.16 nM; in assay [2], 0.14 nM and 0.18 nM.

B4: NCI-CoV-8A2 VHH-hFc fusion protein (Fc fusion)
VHH: AVQLVDSGGGSVQAGGSLRLSCAASGYTYSICTMGWYRQAPGEGLEWVSGINADGSNTHYTDSVKGRFTISRDNAKKTLYLQMNSLKPEDTAIYYCAAHGTYDKYAPCGGFAGTYTYWGQGTQVTVSS
notes: also called 8A2 VHH-Fc; source: Expi293 cells, transfected, purified (protein A column)
In the case of B4, the Kd is 0.26 nM in assay [1]; 0.26 nM and 0.13 nM in assay [2].
